In patent WO2010028797A1 (dated 2010):

Target: human CCR5 (human, UniProt P51681 1-352)
Test: cell-based or functional assay

human CCR5, sequence (P51681 whole entry): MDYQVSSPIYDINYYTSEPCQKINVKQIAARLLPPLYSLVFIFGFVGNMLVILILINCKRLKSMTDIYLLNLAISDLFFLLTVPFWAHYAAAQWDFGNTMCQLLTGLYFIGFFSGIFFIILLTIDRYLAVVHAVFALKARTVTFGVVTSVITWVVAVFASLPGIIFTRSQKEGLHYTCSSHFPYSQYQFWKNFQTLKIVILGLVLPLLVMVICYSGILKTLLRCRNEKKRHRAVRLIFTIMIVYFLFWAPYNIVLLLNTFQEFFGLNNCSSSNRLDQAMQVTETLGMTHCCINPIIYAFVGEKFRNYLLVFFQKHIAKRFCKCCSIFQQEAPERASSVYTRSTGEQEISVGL

B1: BN-1000 (antibody, V domains shown)
VH: QVQLKQSGPGLVRPSQSLSITCTVSGFPLGIFGVHWVRQSPGKGLEWLGVIWKGGNTDYNAAFMSRLRITKDNSKSQVFFRMNSLQTDDTAIYYCAKVNLADAMDYWGQGTSVIVSS
VL: DIQMTQSPASLSASVGETVTITCRASGNIHGYLAWFQQKQGKSPQLLVYNTKTLAEGVPSRFSGSGSGTQFSLKINSLQPEDFGNYYCQHHYDLPRTFGGGTKLEIK
  IC50, antiviral assay in PBMC (HIV-1 NLBaL, p24 ELISA): 1.08 nM
